Results on one substance are retold here after paper PMC9103234.

The target of this experiment is CD20 on the surface of Raji cells (human (endogenous in Raji)) (UniProt P11836).
UniProt P11836, sequence (P11836 whole entry): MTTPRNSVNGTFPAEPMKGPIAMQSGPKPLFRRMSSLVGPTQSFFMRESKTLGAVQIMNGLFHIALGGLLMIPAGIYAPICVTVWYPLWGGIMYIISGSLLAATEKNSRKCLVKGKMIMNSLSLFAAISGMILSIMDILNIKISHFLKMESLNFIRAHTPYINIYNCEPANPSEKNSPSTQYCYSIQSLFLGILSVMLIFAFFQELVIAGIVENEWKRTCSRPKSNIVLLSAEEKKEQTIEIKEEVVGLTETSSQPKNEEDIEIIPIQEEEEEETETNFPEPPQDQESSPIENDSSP

Substance rituximab (antibody) gave an EC50 of complement-dependent cytotoxicity on Raji cells (LDH release, guinea-pig complement) of 880 pM.
